Experimental data: patent US6395526B1, “DNA polymerase” (Takara Shuzo Co., Ltd., priority 1995, dated 2002)

Columns and labels:
[1] = target: T1, second DNA polymerase-constituting protein (translation product of ORF4)
T1 chain: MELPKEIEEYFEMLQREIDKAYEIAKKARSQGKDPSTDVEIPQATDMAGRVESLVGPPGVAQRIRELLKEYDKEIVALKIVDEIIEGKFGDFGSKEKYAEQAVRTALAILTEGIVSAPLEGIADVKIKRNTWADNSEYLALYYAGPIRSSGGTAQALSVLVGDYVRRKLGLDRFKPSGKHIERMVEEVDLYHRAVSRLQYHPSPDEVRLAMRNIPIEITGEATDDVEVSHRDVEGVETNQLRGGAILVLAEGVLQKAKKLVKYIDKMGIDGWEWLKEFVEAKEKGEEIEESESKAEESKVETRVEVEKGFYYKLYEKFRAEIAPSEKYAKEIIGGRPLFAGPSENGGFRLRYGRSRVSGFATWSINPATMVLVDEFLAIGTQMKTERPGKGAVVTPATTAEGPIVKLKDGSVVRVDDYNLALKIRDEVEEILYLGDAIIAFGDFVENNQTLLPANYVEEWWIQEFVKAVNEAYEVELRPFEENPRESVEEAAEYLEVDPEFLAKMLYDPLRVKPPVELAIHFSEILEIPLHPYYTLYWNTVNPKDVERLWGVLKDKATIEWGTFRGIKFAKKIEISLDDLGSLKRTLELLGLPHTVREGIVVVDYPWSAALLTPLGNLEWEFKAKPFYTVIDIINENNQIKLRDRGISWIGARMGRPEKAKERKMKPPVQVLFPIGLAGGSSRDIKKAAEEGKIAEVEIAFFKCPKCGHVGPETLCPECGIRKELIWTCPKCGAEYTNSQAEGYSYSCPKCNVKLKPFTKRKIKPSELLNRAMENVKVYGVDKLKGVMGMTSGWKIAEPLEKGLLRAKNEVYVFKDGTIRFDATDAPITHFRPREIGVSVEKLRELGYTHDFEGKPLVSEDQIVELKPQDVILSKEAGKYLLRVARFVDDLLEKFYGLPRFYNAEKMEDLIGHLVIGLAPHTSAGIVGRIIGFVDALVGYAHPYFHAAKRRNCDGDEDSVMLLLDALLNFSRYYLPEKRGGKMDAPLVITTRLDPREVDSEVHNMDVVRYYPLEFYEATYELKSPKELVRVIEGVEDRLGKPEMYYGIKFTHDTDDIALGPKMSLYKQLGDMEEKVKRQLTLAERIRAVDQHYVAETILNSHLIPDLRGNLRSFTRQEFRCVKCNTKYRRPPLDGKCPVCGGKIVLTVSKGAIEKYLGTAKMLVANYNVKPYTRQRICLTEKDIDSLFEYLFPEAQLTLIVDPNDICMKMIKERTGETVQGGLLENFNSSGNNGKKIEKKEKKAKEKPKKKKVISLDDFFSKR

[2] = target: T2, second DNA polymerase-constituting protein (translation product of ORF4) (Pyrococcus furiosus, UniProt P81409 1-1263); test: gel filtration (Superose 6) of the co-expressed, purified polymerase; activity peaks at about 385 kDa and about 220 kDa
T2 construct: Subunit of the two-protein DNA polymerase from Pyrococcus furiosus DSM3638; Expressed in E. coli, either together with ORF3 from pFU1001 or alone from pFU-ORF4; About 140,000 Da on SDS-PAGE; also called ORF4 translation product; ORF4-derived translation product
T2 sequence: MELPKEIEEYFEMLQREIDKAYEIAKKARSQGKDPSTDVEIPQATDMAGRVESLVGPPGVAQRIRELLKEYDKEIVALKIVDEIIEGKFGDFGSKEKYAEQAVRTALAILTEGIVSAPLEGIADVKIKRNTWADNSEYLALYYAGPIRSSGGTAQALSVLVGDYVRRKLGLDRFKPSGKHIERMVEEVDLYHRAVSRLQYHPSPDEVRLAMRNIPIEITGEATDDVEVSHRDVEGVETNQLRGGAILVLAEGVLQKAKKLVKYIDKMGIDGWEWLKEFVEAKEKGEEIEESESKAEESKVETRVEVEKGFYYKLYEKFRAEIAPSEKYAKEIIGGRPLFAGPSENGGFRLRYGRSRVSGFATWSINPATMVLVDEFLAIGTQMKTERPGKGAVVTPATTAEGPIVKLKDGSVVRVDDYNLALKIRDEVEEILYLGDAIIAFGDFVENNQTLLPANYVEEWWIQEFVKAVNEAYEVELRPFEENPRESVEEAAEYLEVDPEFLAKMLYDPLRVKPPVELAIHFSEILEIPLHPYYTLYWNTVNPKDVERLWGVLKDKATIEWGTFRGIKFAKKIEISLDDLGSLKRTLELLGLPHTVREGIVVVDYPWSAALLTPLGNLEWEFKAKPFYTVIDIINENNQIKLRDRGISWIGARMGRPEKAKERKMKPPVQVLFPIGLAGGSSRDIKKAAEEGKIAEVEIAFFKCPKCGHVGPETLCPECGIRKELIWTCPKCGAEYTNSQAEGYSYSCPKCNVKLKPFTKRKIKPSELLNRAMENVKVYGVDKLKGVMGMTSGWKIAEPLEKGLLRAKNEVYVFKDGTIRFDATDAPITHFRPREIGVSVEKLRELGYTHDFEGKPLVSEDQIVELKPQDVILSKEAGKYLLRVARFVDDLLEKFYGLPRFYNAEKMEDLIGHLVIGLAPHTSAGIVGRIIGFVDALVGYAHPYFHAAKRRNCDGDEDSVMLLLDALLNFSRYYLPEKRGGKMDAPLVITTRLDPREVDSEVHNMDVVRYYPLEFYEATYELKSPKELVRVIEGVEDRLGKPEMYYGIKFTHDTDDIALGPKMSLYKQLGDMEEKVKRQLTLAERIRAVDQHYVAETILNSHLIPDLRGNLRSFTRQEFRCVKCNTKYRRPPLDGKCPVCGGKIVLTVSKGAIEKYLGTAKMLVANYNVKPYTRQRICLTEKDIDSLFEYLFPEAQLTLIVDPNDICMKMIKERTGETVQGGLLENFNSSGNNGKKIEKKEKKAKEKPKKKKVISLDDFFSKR
Method: Ten milliliters of an enzyme solution obtained by collecting as an active fraction was desalted and concentrated by ultrafiltration, and dissolved in buffer A+150 mM NaCl to yield 3.5 ml of an enzyme solution. The resulting enzyme solution was then applied to a Hi Trap Heparin column (manufactured by Pharmacia), previously equilibrated with the same buffer. A chromatogram was developed on a linear concentration gradient from 150 to 650 mM NaCl using an FPLC system, to yield an active fraction eluted at 400 mM NaCl. Five milliliters of this fraction was concentrated to 120 µl of a solution including 50 mM potassium phosphate, pH 6.5, 2 mM 2-mercaptoethanol, and 75 mM NaCl by repeating desalting and concentration using ultrafiltration. The resulting concentrated solution was then applied to a gel filtration column of Superose 6 (manufactured by Pharmacia), previously equilibrated with the same buffer, and eluted with the same buffer. As a result, a fraction having a DNA polymerase activity was eluted at positions corresponding to retention times of 34.7 minutes and 38.3 minutes. […] These molecular weights corresponded to a complex formed by the translation product of ORF3 and the translation product of ORF4 in a molar ratio of 1:2 and another complex formed by the above translation products in a molar ratio of 1:1, respectively. […]

- binding result [2]: binds
B1: first DNA polymerase-constituting protein (translation product of ORF3) (enzyme)
chain: MDEFVKSLLKANYLITPSAYYLLREYYEKGEFSIVELVKFARSRESYIITDALATEFLKVKGLEPILPVETKGGFVSTGESQKEQSYEESFGTKEEISQEIKEGESFISTGSEPLEEELNSIGIEEIGANEELVSNGNDNGGEAIVFDKYGYPMVYAPEEIEVEEKEYSKYEDLTIPMNPDFNYVEIKEDYDVVFDVRNVKLKPPKVKNGNGKEGEIIVEAYASLFRSRLKKLRKILRENPELDNVVDIGKLKYVKEDETVTIIGLVNSKREVNKGLIFEIEDLTGKVKVFLPKDSEDYREAFKVLPDAVVAFKGVYSKRGILYANKFYLPDVPLYRRQKPPLEEKVYAILISDIHVGSKEFCENAFIKFLEWLNGNVETKEEEEIVSRVKYLIIAGDVVDGVGVYPGQYADLTIPDIFDQYEALANLLSHVPKHITMFIAPGNHDAARQAIPQPEFYKEYAKPIYKLKNAVIISNPAVIRLHGRDFLIAHGRGIEDVVGSVPGLTHHKPGLPMVELLKMRHVAPMFGGKVPIAPDPEDLLVIEEVPDVVHMGHVHVYDAVVYRGVQLVNSATWQAQTEFQKMVNIVPTPAKVPVVDIDTAKVVKVLDFSGWC
notes: Subunit of the two-protein DNA polymerase from Pyrococcus furiosus DSM3638; Expressed in E. coli, either together with ORF4 from pFU1001 or alone from pFU-ORF3; About 90,000 Da on SDS-PAGE; also called ORF3 translation product; ORF3-derived translation product
- thermostable DNA polymerase activity [1]: although neither of the ORF translation products thus purified exhibited the DNA polymerase activity when assayed alone, thermostable DNA polymerase activity was exhibited when they were mixed together
